In paper PMC5374532, “Rational mutagenesis by engineering disulphide bonds improves Kluyveromyces lactis beta-galactosidase for high-temperature industrial applications” (Scientific Reports, 2017):

Biological target: the molecule itself
Assay: AUC; sedimentation velocity, 0.2 mg/mL enzyme, 50 mM Tris-HCl, 150 mM NaCl, pH 7.4, 48 k rpm, c(s) distribution (SEDFIT); self-association, shares of monomer, dimer, trimer and tetramer

B1: Kluyveromyces lactis β-galactosidase (enzyme, UniProt P00723 2-1025, looked up)
chain: SCLIPENLRNPKKVHENRLPTRAYYYDQDIFESLNGPWAFALFDAPLDAPDAKNLDWETAKKWSTISVPSHWELQEDWKYGKPIYTNVQYPIPIDIPNPPTVNPTGVYARTFELDSKSIESFEHRLRFEGVDNCYELYVNGQYVGFNKGSRNGAEFDIQKYVSEGENLVVVKVFKWSDSTYIEDQDQWWLSGIYRDVSLLKLPKKAHIEDVRVTTTFVDSQYQDAELSVKVDVQGSSYDHINFTLYEPEDGSKVYDASSLLNEENGNTTFSTKEFISFSTKKNEETAFKINVKAPEHWTAENPTLYKYQLDLIGSDGSVIQSIKHHVGFRQVELKDGNITVNGKDILFRGVNRHDHHPRFGRAVPLDFVVRDLILMKKFNINAVRNSHYPNHPKVYDLFDKLGFWVIDEADLETHGVQEPFNRHTNLEAEYPDTKNKLYDVNAHYLSDNPEYEVAYLDRASQLVLRDVNHPSIIIWSLGNEACYGRNHKAMYKLIKQLDPTRLVHYEGDLNALSADIFSFMYPTFEIMERWRKNHTDENGKFEKPLILCEYGHAMGNGPGSLKEYQELFYKEKFYQGGFIWEWANHGIEFEDVSTADGKLHKAYAYGGDFKEEVHDGVFIMDGLCNSEHNPTPGLVEYKKVIEPVHIKIAHGSVTITNKHDFITTDHLLFIDKDTGKTIDVPSLKPEESVTIPSDTTYVVAVLKDDAGVLKAGHEIAWGQAELPLKVPDFVTETAEKAAKINDGKRYVSVESSGLHFILDKLLGKIESLKVKGKEISSKFEGSSITFWRPPTNNDEPRDFKNWKKYNIDLMKQNIHGVSVEKGSNGSLAVVTVNSRISPVVFYYGFETVQKYTIFANKINLNTSMKLTGEYQPPDFPRVGYEFWLGDSYESFEWLGRGPGESYPDKKESQRFGLYDSKDVEEFVYDYPQENGNHTDTHFLNIKFEGAGKLSIFQKEKPFNFKISDEYGVDEAAHACDVKRYGRHYLRLDHAIHGVGSEACGPAVLDQYRLKAQDFNFEFDLAFE
notes: β-galactosidase of Kluyveromyces lactis, LAC4 gene (Gene ID 2897170), amplified from plasmid pLX8 and cloned in YEpFLAG; Monomer 118 kDa as printed; also called Kl-β-Gal; native Kl-β-Gal; not shown: FLAG, N-terminal, kept
stoichiometry N: 2
